Experimental findings from paper PMC1361615 are described below.

The target in this data set is His-tagged M.RsrI (UniProt P14751 1-319). The data set can be described thus: size-exclusion chromatography. (In general: In gel filtration, larger molecules generally elute earlier.)
Sequence of His-tagged M.RsrI (P14751 whole entry): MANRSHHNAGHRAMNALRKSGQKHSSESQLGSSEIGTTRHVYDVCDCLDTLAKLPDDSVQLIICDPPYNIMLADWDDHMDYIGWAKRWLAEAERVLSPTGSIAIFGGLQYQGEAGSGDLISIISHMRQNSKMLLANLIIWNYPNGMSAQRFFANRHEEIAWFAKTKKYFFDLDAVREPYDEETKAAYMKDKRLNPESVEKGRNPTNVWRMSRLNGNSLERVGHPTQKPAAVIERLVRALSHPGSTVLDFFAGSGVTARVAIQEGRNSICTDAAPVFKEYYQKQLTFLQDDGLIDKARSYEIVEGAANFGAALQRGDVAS

B1: 25 bp unmethylated duplex, gel filtration (dsDNA)
DNA 1: GGCAGACACGGAATTCCACAGACGG
DNA 2: CCGTCTGTGGAATTCCGTGTCTGCC
modifications: none
Regarding B1, the binding result is given as “binds”.
